The values below come from publication PMC7550751, “Application of Force to a Syndecan-4 Containing Complex With Thy-1–αVβ3 Integrin Accelerates Neurite Retraction” (Frontiers in Molecular Biosciences, 2020).

The target of experiment [1] is T1, αVβ3-Fc + Syndecan-4-Fc (both on one bead) ( | human, UniProt P06756 31-992; P05106 27-718; P31431 19-145).
T1 chain 1: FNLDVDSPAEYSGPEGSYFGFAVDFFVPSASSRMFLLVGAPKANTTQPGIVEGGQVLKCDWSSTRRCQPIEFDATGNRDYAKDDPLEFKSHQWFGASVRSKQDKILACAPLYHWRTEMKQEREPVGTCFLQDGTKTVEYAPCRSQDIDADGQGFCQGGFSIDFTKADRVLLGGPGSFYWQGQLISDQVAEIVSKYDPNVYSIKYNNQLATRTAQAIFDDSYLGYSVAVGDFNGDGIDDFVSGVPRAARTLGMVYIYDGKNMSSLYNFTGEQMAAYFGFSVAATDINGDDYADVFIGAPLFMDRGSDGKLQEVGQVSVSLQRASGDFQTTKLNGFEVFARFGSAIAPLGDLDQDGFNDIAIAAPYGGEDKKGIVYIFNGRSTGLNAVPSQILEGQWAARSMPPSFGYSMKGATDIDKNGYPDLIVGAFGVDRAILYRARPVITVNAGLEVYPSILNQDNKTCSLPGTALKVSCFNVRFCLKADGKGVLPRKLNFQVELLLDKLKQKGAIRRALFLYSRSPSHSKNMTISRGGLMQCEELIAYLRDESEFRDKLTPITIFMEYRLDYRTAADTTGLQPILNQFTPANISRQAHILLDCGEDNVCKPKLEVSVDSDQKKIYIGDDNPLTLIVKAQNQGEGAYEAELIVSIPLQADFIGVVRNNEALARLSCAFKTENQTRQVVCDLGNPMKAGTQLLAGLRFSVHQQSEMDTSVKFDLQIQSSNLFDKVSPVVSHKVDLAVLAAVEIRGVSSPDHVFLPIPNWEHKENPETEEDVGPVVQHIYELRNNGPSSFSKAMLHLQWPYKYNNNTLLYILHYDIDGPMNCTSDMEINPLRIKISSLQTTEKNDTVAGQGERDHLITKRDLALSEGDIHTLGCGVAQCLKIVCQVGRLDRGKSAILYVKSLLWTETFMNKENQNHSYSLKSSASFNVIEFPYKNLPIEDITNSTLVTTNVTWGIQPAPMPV
T1 chain 2: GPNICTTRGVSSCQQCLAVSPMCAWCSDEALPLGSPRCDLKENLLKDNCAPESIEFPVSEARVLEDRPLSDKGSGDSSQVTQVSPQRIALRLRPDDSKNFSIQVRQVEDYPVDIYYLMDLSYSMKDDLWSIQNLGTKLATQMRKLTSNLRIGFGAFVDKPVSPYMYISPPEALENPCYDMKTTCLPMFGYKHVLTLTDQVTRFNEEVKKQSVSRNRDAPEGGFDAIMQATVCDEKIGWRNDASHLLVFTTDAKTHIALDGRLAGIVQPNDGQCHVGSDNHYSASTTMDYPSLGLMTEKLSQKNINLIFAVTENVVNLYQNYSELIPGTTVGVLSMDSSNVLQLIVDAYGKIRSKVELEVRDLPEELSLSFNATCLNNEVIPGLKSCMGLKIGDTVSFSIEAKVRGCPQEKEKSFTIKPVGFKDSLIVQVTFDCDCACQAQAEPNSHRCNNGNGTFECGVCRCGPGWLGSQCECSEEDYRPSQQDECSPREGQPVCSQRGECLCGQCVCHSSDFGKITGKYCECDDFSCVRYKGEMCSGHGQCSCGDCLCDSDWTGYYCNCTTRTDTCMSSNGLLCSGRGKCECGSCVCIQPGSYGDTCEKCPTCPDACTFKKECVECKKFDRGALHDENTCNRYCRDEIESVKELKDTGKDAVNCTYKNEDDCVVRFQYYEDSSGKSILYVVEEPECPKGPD
T1 chain 3: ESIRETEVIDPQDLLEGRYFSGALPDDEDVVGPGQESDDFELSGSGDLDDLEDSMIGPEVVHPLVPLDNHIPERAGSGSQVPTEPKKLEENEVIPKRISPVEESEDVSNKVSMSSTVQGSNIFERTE
The experiment in a line: zero force, optical tweezers, both αvβ3-Fc and Syndecan-4-Fc on the bead.

Experiment [2] has as its target T2, Commercially purified human Syndecan (ectodomain)-4-Fc (human, UniProt P31431 19-145).
T2 chain: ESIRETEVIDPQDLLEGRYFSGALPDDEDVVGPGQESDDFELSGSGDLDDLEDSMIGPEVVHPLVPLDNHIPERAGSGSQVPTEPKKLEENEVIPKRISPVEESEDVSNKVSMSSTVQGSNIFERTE
The experiment in a line: zero force, optical tweezers, with TRAIL-R2-Fc control on the bead.

Experiment [3] concerns the target T3, Recombinant αVβ3-Fc integrin (UniProt P06756 31-992; P05106 27-718).
T3 chain 1: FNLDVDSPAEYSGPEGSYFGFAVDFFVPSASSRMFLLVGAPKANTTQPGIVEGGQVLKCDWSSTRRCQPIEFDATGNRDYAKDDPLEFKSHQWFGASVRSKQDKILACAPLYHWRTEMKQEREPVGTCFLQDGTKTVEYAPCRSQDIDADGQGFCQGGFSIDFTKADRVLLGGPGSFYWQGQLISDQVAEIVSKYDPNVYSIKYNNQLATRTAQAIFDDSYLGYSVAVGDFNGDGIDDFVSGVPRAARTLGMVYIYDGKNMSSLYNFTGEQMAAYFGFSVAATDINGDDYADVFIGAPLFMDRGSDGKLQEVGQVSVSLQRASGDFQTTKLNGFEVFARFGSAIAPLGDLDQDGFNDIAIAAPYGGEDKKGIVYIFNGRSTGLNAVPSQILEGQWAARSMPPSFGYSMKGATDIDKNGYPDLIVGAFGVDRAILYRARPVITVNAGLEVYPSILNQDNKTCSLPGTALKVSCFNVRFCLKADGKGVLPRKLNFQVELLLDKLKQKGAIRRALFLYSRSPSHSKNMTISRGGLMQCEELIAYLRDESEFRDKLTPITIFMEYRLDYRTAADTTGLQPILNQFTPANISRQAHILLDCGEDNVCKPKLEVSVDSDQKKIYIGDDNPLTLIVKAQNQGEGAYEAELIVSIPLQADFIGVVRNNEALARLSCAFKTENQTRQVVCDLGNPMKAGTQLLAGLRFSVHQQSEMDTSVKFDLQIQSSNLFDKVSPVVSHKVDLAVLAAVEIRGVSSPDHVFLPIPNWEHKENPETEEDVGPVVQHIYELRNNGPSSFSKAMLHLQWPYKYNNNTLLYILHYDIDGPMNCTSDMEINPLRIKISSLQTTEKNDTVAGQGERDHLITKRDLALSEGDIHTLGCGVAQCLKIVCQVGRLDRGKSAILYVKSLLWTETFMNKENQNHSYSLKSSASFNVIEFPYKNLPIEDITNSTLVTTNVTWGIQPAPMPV
T3 chain 2: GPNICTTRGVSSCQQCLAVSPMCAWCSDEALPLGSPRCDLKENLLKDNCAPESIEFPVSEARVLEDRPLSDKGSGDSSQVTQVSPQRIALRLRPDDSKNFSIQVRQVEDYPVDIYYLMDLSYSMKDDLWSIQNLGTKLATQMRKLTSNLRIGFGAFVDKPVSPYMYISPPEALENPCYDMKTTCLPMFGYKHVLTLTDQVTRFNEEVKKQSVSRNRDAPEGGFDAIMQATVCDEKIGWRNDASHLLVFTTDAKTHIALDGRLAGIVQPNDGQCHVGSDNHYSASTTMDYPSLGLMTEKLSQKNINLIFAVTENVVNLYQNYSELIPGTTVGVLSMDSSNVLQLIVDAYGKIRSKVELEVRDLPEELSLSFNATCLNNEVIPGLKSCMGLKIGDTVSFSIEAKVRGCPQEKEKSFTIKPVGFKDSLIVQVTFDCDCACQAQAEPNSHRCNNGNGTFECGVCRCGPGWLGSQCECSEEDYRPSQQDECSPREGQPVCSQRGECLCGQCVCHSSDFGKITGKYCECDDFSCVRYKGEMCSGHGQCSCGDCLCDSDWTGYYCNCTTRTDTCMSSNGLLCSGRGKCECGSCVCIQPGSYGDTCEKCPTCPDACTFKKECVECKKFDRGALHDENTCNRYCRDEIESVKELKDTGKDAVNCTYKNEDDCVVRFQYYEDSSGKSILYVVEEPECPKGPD
The experiment is described as above.

Experiment [4] deals with T2, Commercially purified human Syndecan …. Put plainly: zero force, optical tweezers.
The target in experiment [5] is T3, Recombinant αVβ3-Fc integrin. Put plainly: zero force, optical tweezers.

B1: Thy-1-Fc wild type (Fc fusion)
chain: QKVTSLTACLVNQNLRLDCRHENNTKDNSIQHEFSLTREKRKHVLSGTLGIPEHTYRSRVTLSNQPYIKVLTLANFTTKDEGDYFCELQVSGANPMSSNKSISVYRDKLVKC
As usually defined, the koff is a measure of how fast the partners let go of each other. With B1, the koff in experiment [1] came to 0.08 s⁻¹; in experiment [2], 0.28 s⁻¹; in experiment [3], 0.15 s⁻¹; in experiment [4], 0.32 s⁻¹; in experiment [5], 0.14 s⁻¹.
